# Source: publication PMC4567348, “Functional Characterization of Hevea brasiliensis CRT/DRE Binding Factor 1 Gene Revealed Regulation Potential in the CBF Pathway of Tropical Perennial Tree”
# B1: COR15b (dsDNA)
# DNA 1: CTGATGGCCGACCTCTTTTTT
# DNA 2: AAAAAAGAGGTCGGCCATCAG
# B2: COR15a (dsDNA)
# DNA 1: TTTCATGGCCGACCTGCTTTTTT
# DNA 2: AAAAAAGCAGGTCGGCCATGAAA
# B3: RD29b (dsDNA)
# DNA 1: CTACCGACATGAGTTCCAAAAAA
# DNA 2: TTTTTTGGAACTCATGTCGGTAG
# B4: RD29a (dsDNA)
# DNA 1: ATATACTACCGACATGAGTTCT
# DNA 2: AGAACTCATGTCGGTAGTATAT
# Legend:
# GST-HbCBF1 [1] = molecular target: T1, GST-HbCBF1 (Hevea brasiliensis, UniProt Q4KP31 1-231); assay: competition EMSA; 125-fold molar excess cold competitor vs COR15a probe; 10 mM Tris-HCl pH 7.5, 100 mM KCl, 10% glycerol, 1 mM DTT, 0.1% NP-40, 1 mM spermidine, 0.5 ug fish sperm DNA, 4 ug protein, 1 ng probe, 25 C; conditions: protein: recombinant; tags: N-terminal GST (pGEX-6p-1); blunt
# GST-HbCBF1 [2] = molecular target: T1, GST-HbCBF1; assay: EMSA; 10 mM Tris-HCl pH 7.5, 100 mM KCl, 10% glycerol, 1 mM DTT, 0.1% NP-40, 1 mM spermidine, 0.5 ug fish sperm DNA, 4 ug protein, 1 ng probe, 25 C; conditions: protein: recombinant; tags: N-terminal GST (pGEX-6p-1); label: 5'-digoxigenin (hot probe); blunt
# T1 sequence (Q4KP31 entry or part of it): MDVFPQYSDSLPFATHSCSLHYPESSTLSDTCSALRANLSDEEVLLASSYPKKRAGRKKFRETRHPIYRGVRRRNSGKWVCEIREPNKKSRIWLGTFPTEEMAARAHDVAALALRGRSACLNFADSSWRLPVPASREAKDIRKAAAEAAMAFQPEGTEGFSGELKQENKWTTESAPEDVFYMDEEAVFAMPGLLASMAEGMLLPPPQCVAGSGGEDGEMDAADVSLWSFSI
Binder,binding result (GST-HbCBF1 [1]),binding result (GST-HbCBF1 [2])
B1,binds,–
B2,–,binds
B3,binds,–
B4,binds,–
